Laboratory results from patent publication US20220324954A1.

Legend:
human VEGFA (human) [1] = molecular target: human VEGFA (human) (UniProt P15692); assay: blocking ELISA: VEGFR2 coated, biotinylated VEGFA with antibody dilutions (FIG. 6)
human VEGFA (human) [2] = molecular target: human VEGFA (human) (UniProt P15692); assay: cell-based or functional assay

human VEGFA (human), sequence (P15692 other isoform, or with tags, fused parts or gaps limits assumed): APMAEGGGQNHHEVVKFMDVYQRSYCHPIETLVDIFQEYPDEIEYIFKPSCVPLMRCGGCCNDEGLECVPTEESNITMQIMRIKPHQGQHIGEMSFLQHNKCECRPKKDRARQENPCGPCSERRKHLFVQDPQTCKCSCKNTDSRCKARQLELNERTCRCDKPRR
Conbercept (Fc fusion), sequence (chain): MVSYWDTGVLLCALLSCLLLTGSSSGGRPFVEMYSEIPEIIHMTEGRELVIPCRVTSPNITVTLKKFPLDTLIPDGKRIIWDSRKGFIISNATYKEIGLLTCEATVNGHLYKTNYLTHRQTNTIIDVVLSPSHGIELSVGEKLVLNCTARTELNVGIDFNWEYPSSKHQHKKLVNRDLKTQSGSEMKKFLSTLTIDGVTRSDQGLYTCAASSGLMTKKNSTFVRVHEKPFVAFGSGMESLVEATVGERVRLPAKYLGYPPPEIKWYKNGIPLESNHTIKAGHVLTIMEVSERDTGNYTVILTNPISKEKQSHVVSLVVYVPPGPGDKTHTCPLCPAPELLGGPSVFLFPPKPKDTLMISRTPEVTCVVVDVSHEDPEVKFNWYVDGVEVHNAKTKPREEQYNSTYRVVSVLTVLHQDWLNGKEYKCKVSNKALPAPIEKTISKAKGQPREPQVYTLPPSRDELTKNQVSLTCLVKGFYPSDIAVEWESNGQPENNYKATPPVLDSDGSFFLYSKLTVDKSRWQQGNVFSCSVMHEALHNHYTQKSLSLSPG
Eylea (Aflibercept) (Fc fusion), sequence (chain): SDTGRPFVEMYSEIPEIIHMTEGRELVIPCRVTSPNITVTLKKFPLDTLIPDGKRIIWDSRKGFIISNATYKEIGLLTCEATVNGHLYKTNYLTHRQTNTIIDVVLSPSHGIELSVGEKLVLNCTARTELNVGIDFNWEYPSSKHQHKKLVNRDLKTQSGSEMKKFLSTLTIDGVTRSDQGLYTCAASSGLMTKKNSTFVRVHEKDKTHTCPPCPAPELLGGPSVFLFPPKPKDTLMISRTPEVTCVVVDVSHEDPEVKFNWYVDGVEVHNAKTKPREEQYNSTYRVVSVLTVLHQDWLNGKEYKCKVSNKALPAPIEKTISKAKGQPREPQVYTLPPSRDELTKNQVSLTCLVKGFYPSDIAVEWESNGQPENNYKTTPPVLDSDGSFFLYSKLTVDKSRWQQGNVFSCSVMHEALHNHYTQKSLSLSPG

IC50 (human VEGFA (human) [1])	inhibitory effect on HUVEC cell proliferation, IC50 (human VEGFA (human) [2])	Substance
0.088 µg/mL	0.13 µg/mL	Conbercept (Fc fusion)
0.085 µg/mL	0.066 µg/mL	Eylea (Aflibercept) (Fc fusion)
